Laboratory results as given in US20100325744A1 (published 2010).

Target: the molecule itself
Experiment: monomer to dimer conversion (% monomer vs concentration); self-association

B1: L236V (protein)
chain: ASTKGPSVFPLAPCSRSTSESTAALGCLVKDYFPEPVTVSWNSGALTSGVHTFPAVLQSSGLYSLSSVVTVPSSSLGTKTYTCNVDHKPSNTKVDKRVAPEFLGGPSVFLFPPKPKDTLMISRTPEVTCVVVDVSQEDPEVQFNWYVDGVEVHNAKTKPREEQFNSTYRVVSVLTVLHQDWLNGKEYKCKVSNKGLPSSIEKTISKAKGQPREPQVYTLPPSQEEMTKNQVSLTCVVKGFYPSDIAVEWESNGQPENNYKTTPPVLDSDGSFFLYSRLTVDKSRWQEGNVFSCSVMHEALHNHYTQKSLSLSLGK
EC50: 2.16 µM

B2: WT (protein)
chain: ASTKGPSVFPLAPCSRSTSESTAALGCLVKDYFPEPVTVSWNSGALTSGVHTFPAVLQSSGLYSLSSVVTVPSSSLGTKTYTCNVDHKPSNTKVDKRVAPEFLGGPSVFLFPPKPKDTLMISRTPEVTCVVVDVSQEDPEVQFNWYVDGVEVHNAKTKPREEQFNSTYRVVSVLTVLHQDWLNGKEYKCKVSNKGLPSSIEKTISKAKGQPREPQVYTLPPSQEEMTKNQVSLTCLVKGFYPSDIAVEWESNGQPENNYKTTPPVLDSDGSFFLYSRLTVDKSRWQEGNVFSCSVMHEALHNHYTQKSLSLSLGK
EC50: 0.039 µM

B3: F273A (protein)
chain: ASTKGPSVFPLAPCSRSTSESTAALGCLVKDYFPEPVTVSWNSGALTSGVHTFPAVLQSSGLYSLSSVVTVPSSSLGTKTYTCNVDHKPSNTKVDKRVAPEFLGGPSVFLFPPKPKDTLMISRTPEVTCVVVDVSQEDPEVQFNWYVDGVEVHNAKTKPREEQFNSTYRVVSVLTVLHQDWLNGKEYKCKVSNKGLPSSIEKTISKAKGQPREPQVYTLPPSQEEMTKNQVSLTCLVKGFYPSDIAVEWESNGQPENNYKTTPPVLDSDGSFALYSRLTVDKSRWQEGNVFSCSVMHEALHNHYTQKSLSLSLGK
EC50: 3.06 µM

B4: Y275A (protein)
chain: ASTKGPSVFPLAPCSRSTSESTAALGCLVKDYFPEPVTVSWNSGALTSGVHTFPAVLQSSGLYSLSSVVTVPSSSLGTKTYTCNVDHKPSNTKVDKRVAPEFLGGPSVFLFPPKPKDTLMISRTPEVTCVVVDVSQEDPEVQFNWYVDGVEVHNAKTKPREEQFNSTYRVVSVLTVLHQDWLNGKEYKCKVSNKGLPSSIEKTISKAKGQPREPQVYTLPPSQEEMTKNQVSLTCLVKGFYPSDIAVEWESNGQPENNYKTTPPVLDSDGSFFLASRLTVDKSRWQEGNVFSCSVMHEALHNHYTQKSLSLSLGK
EC50: 2.19 µM
